From paper PMC10786891, “Massively parallel profiling of RNA-targeting CRISPR-Cas13d” come the findings set out here.

B1: target 3 insU 3' of 5,insU 3' of 4 (mixed)
RNA 1: CACCCGUGCAAAAUUGCAGGGGUCUAAAACGACCUGAAUAUUUCAGAUCAAA
RNA 2: GGGAAUGGAUCCACAUCUACGAAUUCGUUUUUGAUCUGAAAUAUUCAUGUGUCUGCAGAUCGGAAGAGCACACGU
B2: target 3 insU 3' of 6,insA 3' of 3 (mixed)
RNA 1: CACCCGUGCAAAAUUGCAGGGGUCUAAAACGACCUGAAUAUUUCAGAUCAAA
RNA 2: GGGAAUGGAUCCACAUCUACGAAUUCGUUUUUGAUCUGAAAUAUUCUAGGAUCUGCAGAUCGGAAGAGCACACGU
B3: target 3 G3U,U8C (mixed)
RNA 1: CACCCGUGCAAAAUUGCAGGGGUCUAAAACGACCUGAAUAUUUCAGAUCAAA
RNA 2: GGGAAUGGAUCCACAUCUACGAAUUCGUUUUUGAUCUGAAAUACUCAGUUCUGCAGAUCGGAAGAGCACACGU
B4: target 3 G4U,A12U (mixed)
RNA 1: CACCCGUGCAAAAUUGCAGGGGUCUAAAACGACCUGAAUAUUUCAGAUCAAA
RNA 2: GGGAAUGGAUCCACAUCUACGAAUUCGUUUUUGAUCUGAUAUAUUCAUGUCUGCAGAUCGGAAGAGCACACGU
B5: target 3 del3,del4 (mixed)
RNA 1: CACCCGUGCAAAAUUGCAGGGGUCUAAAACGACCUGAAUAUUUCAGAUCAAA
RNA 2: GGGAAUGGAUCCACAUCUACGAAUUCGUUUUUGAUCUGAAAUAUUCAUCUGCAGAUCGGAAGAGCACACGU
B6: target 3 insU 3' of 11,insG 3' of 5 (mixed)
RNA 1: CACCCGUGCAAAAUUGCAGGGGUCUAAAACGACCUGAAUAUUUCAGAUCAAA
RNA 2: GGGAAUGGAUCCACAUCUACGAAUUCGUUUUUGAUCUGAAAUUAUUCAGGGUCUGCAGAUCGGAAGAGCACACGU
B7: target 3 insA 3' of 6,insU 3' of 1 (mixed)
RNA 1: CACCCGUGCAAAAUUGCAGGGGUCUAAAACGACCUGAAUAUUUCAGAUCAAA
RNA 2: GGGAAUGGAUCCACAUCUACGAAUUCGUUUUUGAUCUGAAAUAUUCAAGGUCUUGCAGAUCGGAAGAGCACACGU
B8: target 3 insA 3' of 22,insU 3' of 3 (mixed)
RNA 1: CACCCGUGCAAAAUUGCAGGGGUCUAAAACGACCUGAAUAUUUCAGAUCAAA
RNA 2: GGGAAUGGAUCCACAUCUACGAAUUCGUUUAUUGAUCUGAAAUAUUCAGGUUCUGCAGAUCGGAAGAGCACACGU
B9: target 3 G19U,U20A (mixed)
RNA 1: CACCCGUGCAAAAUUGCAGGGGUCUAAAACGACCUGAAUAUUUCAGAUCAAA
RNA 2: GGGAAUGGAUCCACAUCUACGAAUUCGUUUUAUAUCUGAAAUAUUCAGGUCUGCAGAUCGGAAGAGCACACGU
B10: target 3 insA 3' of 22,insU 3' of 5 (mixed)
RNA 1: CACCCGUGCAAAAUUGCAGGGGUCUAAAACGACCUGAAUAUUUCAGAUCAAA
RNA 2: GGGAAUGGAUCCACAUCUACGAAUUCGUUUAUUGAUCUGAAAUAUUCAUGGUCUGCAGAUCGGAAGAGCACACGU
B11: target 3 A5G,U8A (mixed)
RNA 1: CACCCGUGCAAAAUUGCAGGGGUCUAAAACGACCUGAAUAUUUCAGAUCAAA
RNA 2: GGGAAUGGAUCCACAUCUACGAAUUCGUUUUUGAUCUGAAAUAAUCGGGUCUGCAGAUCGGAAGAGCACACGU
B12: target 3 A5U,A18G (mixed)
RNA 1: CACCCGUGCAAAAUUGCAGGGGUCUAAAACGACCUGAAUAUUUCAGAUCAAA
RNA 2: GGGAAUGGAUCCACAUCUACGAAUUCGUUUUUGGUCUGAAAUAUUCUGGUCUGCAGAUCGGAAGAGCACACGU
B13: target 3 G3U,A12G (mixed)
RNA 1: CACCCGUGCAAAAUUGCAGGGGUCUAAAACGACCUGAAUAUUUCAGAUCAAA
RNA 2: GGGAAUGGAUCCACAUCUACGAAUUCGUUUUUGAUCUGAGAUAUUCAGUUCUGCAGAUCGGAAGAGCACACGU
B14: target 3 insA 3' of 14,insU 3' of 4 (mixed)
RNA 1: CACCCGUGCAAAAUUGCAGGGGUCUAAAACGACCUGAAUAUUUCAGAUCAAA
RNA 2: GGGAAUGGAUCCACAUCUACGAAUUCGUUUUUGAUCUGAAAAUAUUCAGUGUCUGCAGAUCGGAAGAGCACACGU
B15: target 3 insA 3' of 8,insC 3' of 5 (mixed)
RNA 1: CACCCGUGCAAAAUUGCAGGGGUCUAAAACGACCUGAAUAUUUCAGAUCAAA
RNA 2: GGGAAUGGAUCCACAUCUACGAAUUCGUUUUUGAUCUGAAAUAUAUCACGGUCUGCAGAUCGGAAGAGCACACGU
B16: target 3 insC 3' of 7,insU 3' of 3 (mixed)
RNA 1: CACCCGUGCAAAAUUGCAGGGGUCUAAAACGACCUGAAUAUUUCAGAUCAAA
RNA 2: GGGAAUGGAUCCACAUCUACGAAUUCGUUUUUGAUCUGAAAUAUUCCAGGUUCUGCAGAUCGGAAGAGCACACGU
B17: target 3 A5C,U22C (mixed)
RNA 1: CACCCGUGCAAAAUUGCAGGGGUCUAAAACGACCUGAAUAUUUCAGAUCAAA
RNA 2: GGGAAUGGAUCCACAUCUACGAAUUCGUUCUUGAUCUGAAAUAUUCCGGUCUGCAGAUCGGAAGAGCACACGU
B18: target 3 C6G,U8A (mixed)
RNA 1: CACCCGUGCAAAAUUGCAGGGGUCUAAAACGACCUGAAUAUUUCAGAUCAAA
RNA 2: GGGAAUGGAUCCACAUCUACGAAUUCGUUUUUGAUCUGAAAUAAUGAGGUCUGCAGAUCGGAAGAGCACACGU
B19: target 3 U2C,G4C (mixed)
RNA 1: CACCCGUGCAAAAUUGCAGGGGUCUAAAACGACCUGAAUAUUUCAGAUCAAA
RNA 2: GGGAAUGGAUCCACAUCUACGAAUUCGUUUUUGAUCUGAAAUAUUCACGCCUGCAGAUCGGAAGAGCACACGU
B20: target 3 A5U,U22C (mixed)
RNA 1: CACCCGUGCAAAAUUGCAGGGGUCUAAAACGACCUGAAUAUUUCAGAUCAAA
RNA 2: GGGAAUGGAUCCACAUCUACGAAUUCGUUCUUGAUCUGAAAUAUUCUGGUCUGCAGAUCGGAAGAGCACACGU
B21: target 3 insU 3' of 13,insA 3' of 6 (mixed)
RNA 1: CACCCGUGCAAAAUUGCAGGGGUCUAAAACGACCUGAAUAUUUCAGAUCAAA
RNA 2: GGGAAUGGAUCCACAUCUACGAAUUCGUUUUUGAUCUGAUAAUAUUCAAGGUCUGCAGAUCGGAAGAGCACACGU
B22: target 3 insA 3' of 15,insC 3' of 11 (mixed)
RNA 1: CACCCGUGCAAAAUUGCAGGGGUCUAAAACGACCUGAAUAUUUCAGAUCAAA
RNA 2: GGGAAUGGAUCCACAUCUACGAAUUCGUUUUUGAUCUAGAAACUAUUCAGGUCUGCAGAUCGGAAGAGCACACGU
B23: target 3 insU 3' of 22,insU 3' of 6 (mixed)
RNA 1: CACCCGUGCAAAAUUGCAGGGGUCUAAAACGACCUGAAUAUUUCAGAUCAAA
RNA 2: GGGAAUGGAUCCACAUCUACGAAUUCGUUUUUUGAUCUGAAAUAUUCUAGGUCUGCAGAUCGGAAGAGCACACGU
B24: target 3 C1U,U7C (mixed)
RNA 1: CACCCGUGCAAAAUUGCAGGGGUCUAAAACGACCUGAAUAUUUCAGAUCAAA
RNA 2: GGGAAUGGAUCCACAUCUACGAAUUCGUUUUUGAUCUGAAAUAUCCAGGUUUGCAGAUCGGAAGAGCACACGU
B25: target 3 G4A,A9G (mixed)
RNA 1: CACCCGUGCAAAAUUGCAGGGGUCUAAAACGACCUGAAUAUUUCAGAUCAAA
RNA 2: GGGAAUGGAUCCACAUCUACGAAUUCGUUUUUGAUCUGAAAUGUUCAAGUCUGCAGAUCGGAAGAGCACACGU
B26: target 1 A9U,C22U (mixed)
RNA 1: CACCCGUGCAAAAAUGCAGGGGUCUAAAACUGAGCGGAUAACCUCUCUAUGG
RNA 2: GGGAAUGGAUCCACAUCUACGAAUUCGUAUCAUAGAGAGGUUUUCCGCUCACCGAGAUCGGAAGAGCACACGU
B27: target 1 C21A,C22U (mixed)
RNA 1: CACCCGUGCAAAAAUGCAGGGGUCUAAAACUGAGCGGAUAACCUCUCUAUGG
RNA 2: GGGAAUGGAUCCACAUCUACGAAUUCGUAUAAUAGAGAGGUUAUCCGCUCACCGAGAUCGGAAGAGCACACGU

In the data set the target is T1, EsCas13d, nuclease-dead (Eubacterium siraeum, UniProt B0MS50, R295A;H300A;R849A;H854A).
T1 sequence: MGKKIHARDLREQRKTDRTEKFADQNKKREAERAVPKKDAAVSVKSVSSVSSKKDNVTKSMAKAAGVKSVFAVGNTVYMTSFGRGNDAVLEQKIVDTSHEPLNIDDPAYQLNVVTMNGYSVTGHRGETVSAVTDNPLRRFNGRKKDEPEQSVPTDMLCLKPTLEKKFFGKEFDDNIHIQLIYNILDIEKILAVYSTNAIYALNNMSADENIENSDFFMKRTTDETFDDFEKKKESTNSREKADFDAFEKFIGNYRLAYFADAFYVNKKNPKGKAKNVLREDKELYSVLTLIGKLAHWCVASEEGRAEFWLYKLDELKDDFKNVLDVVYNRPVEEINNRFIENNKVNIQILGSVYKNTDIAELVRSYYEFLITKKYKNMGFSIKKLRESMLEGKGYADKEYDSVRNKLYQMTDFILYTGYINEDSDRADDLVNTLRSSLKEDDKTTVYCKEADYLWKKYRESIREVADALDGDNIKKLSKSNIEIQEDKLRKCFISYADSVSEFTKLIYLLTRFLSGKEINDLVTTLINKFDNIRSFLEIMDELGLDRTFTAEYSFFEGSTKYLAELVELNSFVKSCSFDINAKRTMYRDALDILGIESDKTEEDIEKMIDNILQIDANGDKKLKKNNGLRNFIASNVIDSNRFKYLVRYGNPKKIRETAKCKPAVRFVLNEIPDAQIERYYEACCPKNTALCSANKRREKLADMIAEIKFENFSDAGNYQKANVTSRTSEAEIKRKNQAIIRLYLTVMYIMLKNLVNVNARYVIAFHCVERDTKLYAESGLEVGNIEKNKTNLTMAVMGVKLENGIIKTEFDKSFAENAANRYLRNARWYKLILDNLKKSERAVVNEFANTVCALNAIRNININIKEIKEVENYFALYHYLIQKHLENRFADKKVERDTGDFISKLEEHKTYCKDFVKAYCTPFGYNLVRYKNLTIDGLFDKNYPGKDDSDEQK
Description: crRNA (strand 1, pre-loaded); Mg2+; 40 mM Tris-HCl pH 7.5, 150 mM NaCl, 6 mM MgCl2, 1 mM DTT, 0.1% Tween-20, 0.2 mg/ml BSA; 25 C; 10 min per concentration, then washed. The settings on record: tags: His6-TwinStrep-SUMO cleaved; N-terminal SNAP kept (SNAP-Surface 488); label: 3' end held by stalled T7 RNA polymerase.
Molecule B1 showed a Kd of 2 ± 0.23 nM.

Consider B2, for which the Kd amounted to 11.2 ± 1.3 nM. This Kd is about 5.6-fold higher than that of the molecule before.

Take B3: the Kd worked out at 103 ± 17.5 nM.

As to B4, the Kd was determined as 52 ± 13.5 nM.

As to B5, the Kd stood at 13.9 ± 1.4 nM.

In the case of B6, the Kd was determined as 104 ± 29 nM.

The molecule B7 gave a Kd of 31.9 ± 5.8 nM. Compared with the last molecule, the Kd is about 3.3-fold lower.

In turn, B8 gave a dissociation constant Kd of 23.1 ± 3.65 nM.

The molecule B9 showed a dissociation constant Kd of 90 ± 27 nM.

B10 gave a dissociation constant Kd of 11.1 ± 1.15 nM.

The molecule B11 came in with a Kd of 80.5 ± 15 nM.

Consider B12, for which binding was characterised by a dissociation constant (Kd) of 117 ± 25 nM.

The molecule B13 showed a Kd of 86 ± 15 nM.

Take B14: the affinity, expressed as Kd, was 43.5 ± 14.5 nM.

Take B15: the Kd came to 51 ± 5 nM.

Molecule B16 registered a dissociation constant (Kd) of 49.5 ± 10 nM.

On to B17, for which binding was put at a Kd of 84 ± 31 nM.

With B18, the dissociation constant Kd is 81.5 ± 10 nM.

Molecule B19 had a Kd of 18.4 ± 2.75 nM. This Kd is about 4.4-fold lower than that of the molecule before.

The molecule B20 came in with a Kd of 70.5 ± 20 nM.

Molecule B21 had a Kd of 99 ± 25 nM.

Consider B22, for which the equilibrium dissociation constant (Kd) is roughly 90 nM.

B23 yielded a Kd of 27.5 ± 3.7 nM.

Molecule B24 returned a Kd of 58.5 ± 16 nM.

B25: the Kd worked out at 52.5 ± 7 nM.

With B26, the equilibrium dissociation constant (Kd) came out at 24 ± 4 nM.

Regarding B27, the affinity, expressed as Kd, was 45 ± 7 nM.
